In US20220227874A1, “CHIMERIC ANTIGEN RECEPTORS TARGETING EPIDERMAL GROWTH FACTOR RECEPTOR VARIANT III” (published 2022):
Substitutions are numbered along the chain they refer to.

B1: 32A10 (antibody, V domains shown)
VH: QVTLKESGPVLVKPTETLTLTCTVSGFSLSNARMGVSWIRQPPGKALEWLAHIFSTDEKSIRRSLRSRLTLSKDTSKSQVVLTMTNMDPVDTATYFCARDSSNYEGYFDYWGQGTLVTVSS
VL: EVVMTQSPATLSVSPGERVTLSCRASQSVSSNFAWYQQRPGQAPRLLLYGATTRATGLPGRFSGSGSGTENILTISSLQSEDFAIYFCQQYKDWPFTFGPGSKVDIK
B2: 46E10 (antibody, V domains shown)
VH: B1 VH with T83I, F96Y
VL: B1 VL with A9P, T10N, V19A, S30T, A43S, T52S, L58V, I85V
B3: 42G9 (antibody, V domains shown)
VH: B1 VH with V12L, A32P, L50F, I61L, R62K, R63L, D88A, T92S, F96Y, Y110F
VL: EVVLTQSPATLSVSPGERATLSCRASQSVRSNLAWYQQKSGQAPRLLIYGSTIRATGVPARFSGSGSGTEFTLTISSLQSEDFAVYYCQQYSDWPFTFGPGTKVDIK
B4: 21E11 (antibody, V domains shown)
VH: B1 VH with A32V, L50F, T56S, F96Y, Y110F
VL: DMVVTQSPATLSVSPGERATLSCRASQSVGSDLAWYQQPPGQSPRLLIYGASTRATGVPARFSGSGSGTDFTLTITSLESEDFAVYYCQQYNDWPFTFGPGTKVDIK
B5: 14C11 (antibody, V domains shown)
VH: B1 VH with S30N, L50F, I61F, R63T, F96Y, T115I
VL: EIVMTQSPATLSVSPGERATLSCRASQSVSNNLAWYQQKPGQAPRLLIYGASTRATGVPARFSGSDSGTEFSLTISSLQSEDFAVYFCQQYKDWPFTFGPGTKVEIK
B6: 11B11 (antibody, V domains shown)
VH: B1 VH with R33K, L71M, F96Y, A98V
VL: B1 VL with V3L, V19A, S31T, Y49F, T52S, L58I, D105E
B7: 19A9 (antibody, V domains shown)
VH: B1 VH with K5E, L47P, L50F, I61L, R63L, F96Y
VL: EVVMTQSPATLSVSPGERATLSCRASQSVNRNLAWYQQKPGQAPRLLIFGTSTRATGIPARFSGSGSGTEFTLTIDSLQSEHSGLYYCQQYNDWPFTFGPGTKVDIK
B8: 12H6 (antibody, V domains shown)
VH: B1 VH with F96Y
VL: B1 VL with V19A, S28G, A43S, T52S, L58V
B9: 49B11 (antibody, V domains shown)
VH: B1 VH with A32V, L50F, T56S, F96Y
VL: B4 VL with D1E, V3E, S28N, V29I, P39Q, P40S, S43A, Y49S, A60T, E79Q
B10: 29D5 (antibody, V domains shown)
VH: B1 VH with A32P, I39L, L50F, I61Y, R62S, R63P, S67G, L71V, M84L, F96Y
VL: KIVMTQSPATLSVSPGERATLSCRANQIVSSNLAWYQQKPGQAPRLLVFGTSTRATGIPIRFSGSGSGTEFTLTVSSLQSEDFAVYVCQQYNDWPFTFGPGTKVDIK
B11: 12B2 (antibody, V domains shown)
VH: B1 VH with A32P, A51G, T56S, I61Y, R63L, T70S, L71I, F96Y, A98V, E105G
VL: EVVMTQSPATLSVSPGERATLSCRASQSVINNLAWYQQKPGQAPRLLIYGTSTRATDIPARFSGSGSGTEFTLTISSLQSEDFAVYYCQDYNNWPFTFGPGTKVDIK
B12: 21E7 (antibody, V domains shown)
VH: B1 VH with K5E, L47P, L50F, I61L, R63L, F96Y
VL: B7 VL with E1D, M4L, R31S, K39N, T51S, R61S, D76N, G84A, L85V
B13: 11F10 (antibody, V domains shown)
VH: QVTLKESGPVLVKPIETLTLTCTVCGFSLSNPRMGVSWIRQPPGKALEWLGHIFSSDEKSYRLFLRSRLSISKDTSKSQVVLTMTNMDPVDTATYYCARDSSDYEGYFDYWGQGTLVTVSS
VL: EIVMTQSPATLSVSPGERTTLSCRASQSVGSNLAWYQQKPGQAPRLLIYGASTRASGVPARFSGSGSGTEFTLTISSLQSEDFAVYSCQEYNNWPFTFGQGTKVEIK
B14: 20B9 (antibody, V domains shown)
VH: QVTLKESGPVLVKPTETLTLTCTVSGFSLSNARMGVSWIRQPPGKALEWLGHIFSTDEKSYSTSLRGRITISKDTSRGLVVLTLTNMDPVDTATYYCARDSSNYEGYFDFWGPGFLVTVSS
VL: EIVMTQSPATLSVSPGERATLSCRVSQSIGANLAWYQQKFGQAPRLLIYGASTRATGIPVRFSGGGSGTEFTLTISSLQSEDFAIYSCQQYIYWPFTFGPGTTVDIK
B15: 20G5 (antibody, V domains shown)
VH: EVQLVESGGDLVKPGGSLRLSCAASGFTFTNAWMSWVRQAPGKGLEWVGRIKSKIDGGTTDYAAPVKGRFIISRDDSKNTLSLQMNSLKTEDTAMYYCTTAPGGPFDYWGQGSLVTVSS
VL: DIVLTQSPLSLPVTPGEPASISCRSSQSLLYSDRRNYLDWFLQKPGQSPHLLIYLGSYRASGVPDRFSGSGSGTDFTLKISRVEAEDVGVYYCMQALQIPITFGQGTRLEIK
B16: 26B9 (antibody, V domains shown)
VH: EVQLVESWGVLVKPGGSLRLSCAASGFIFNNAWMSWVRQAPGKGLEWIGRIKSKSDGGTTDYAAPVKDRFTISRDDSKDTLYLQMNGLKTEDTAVYFCTTAPGGPFDYWGQGTLVTVSS
VL: B15 VL with Y31H, S32R, R34G, R35F, H50Q, G56A, Y58S, G71D, I99T
B17: 20E12 (antibody, V domains shown)
VH: EVNLVESGGGLVKPGGSLRLSCEASGFTFSYAWMSWVRQAPGKGLEWVGRIKSIADGGATDYAAPVRNRFTISRDDSRNTLYLEMHSLKTEDTAVYYCTTIPGNDAFDMWGQGTMVTVSS
VL: DIVLTQSPLSLSVTPGEPASISCRSSQSLLYSNGKNYLDWFLHKPGQSPQLLIYLGSNRASGVPDRFSGSGSGIDFILKISRVEAEDVGVYYCMQAQQTPITFGQGTRLEIK
B18: 34E7 (antibody, V domains shown)
VH: B17 VH with A55N, A64S, T80M, M115L
VL: B17 VL with S26T, Y54F, N58I
B19: 32G8 (antibody, V domains shown)
VH: B17 VH with A55T, A59V, T60I, F70C, A106D, T114R
VL: B17 VL
B20: 30D8 (antibody, V domains shown)
VH: EVQLVESGGGLVKPGGSLRLSCEASGFTFSDAWMSWVRQAPGKGLEWVGRIKSKTDGGTTDYVVPLNGRFIISRDDSRNTLYLQLNNLKTEDTAVYYCTTVPGSYGYWGQGTLVTVSS
VL: DIVMTQSPLSLPVTPGEPASISCRSSQSLLHNKRNNYLDWFLQKPGQSPQLLIYLASNRASGVPDRFSGGGSGTDFTLKISRVEAEDVGVYYCMQAQQTPITFGQGTRLEIK

Each binder was assayed against T1, EGFRvIII expressed on cells (F98-npEGFRvIII, NCI-H522-EGFRvIII, U87-KO-EGFRvIII) (human) (assay: flow cytometry, F98-EGFRvIII cells; 2nd Ab only 258).

| MFI | Binder |
| --- | --- |
| 3350 | B1 |
| 2990 | B2 |
| 3250 | B3 |
| 3100 | B4 |
| 3210 | B5 |
| 3390 | B6 |
| 3100 | B7 |
| 3440 | B8 |
| 2980 | B9 |
| 2830 | B10 |
| 2750 | B11 |
| 3100 | B12 |
| 3280 | B13 |
| 3420 | B14 |

The binders below were run against T1, EGFRvIII expressed on cells … (assay: flow cytometry, F98-EGFRvIII cells; 2nd Ab only 322).

| MFI | Binder |
| --- | --- |
| 4640 | B15 |
| 5400 | B16 |
| 3980 | B17 |
| 4130 | B18 |
| 3730 | B19 |
| 5160 | B20 |

Each binder was assayed against T1, EGFRvIII expressed on cells … (assay: flow cytometry, F98-EGFRvIII cells; 2nd Ab only 2.3).

| % positive [%] | Binder |
| --- | --- |
| 98.3 | B1 |
| 98.7 | B2 |
| 98.5 | B3 |
| 98.5 | B4 |
| 98.2 | B5 |
| 98.2 | B6 |
| 98.1 | B7 |
| 98.3 | B8 |
| 98.5 | B9 |
| 97.9 | B10 |
| 97.9 | B11 |
| 98.5 | B12 |
| 98 | B13 |
| 98.3 | B14 |

What follows are binders tested against T1, EGFRvIII expressed on cells … (assay: flow cytometry, EGFRvIII expressing cell line against non-expressing cell lines).

| fold MFI over non-expressing cell lines [fold] | Binder |
| --- | --- |
| ≥ 10 | B1 |
| ≥ 10 | B2 |
| ≥ 10 | B3 |
| ≥ 10 | B4 |
| ≥ 10 | B5 |
| ≥ 10 | B6 |
| ≥ 10 | B7 |
| ≥ 10 | B8 |
| ≥ 10 | B9 |
| ≥ 10 | B10 |
| ≥ 10 | B11 |
| ≥ 10 | B12 |
| ≥ 10 | B13 |
| ≥ 10 | B16 |
| ≥ 10 | B14 |
| ≥ 10 | B17 |
| ≥ 10 | B18 |
| ≥ 10 | B19 |
| ≥ 10 | B20 |

These binders were tested against T1, EGFRvIII expressed on cells … (assay: flow cytometry, F98-EGFRvIII cells; 2nd Ab only 1.3).

| % positive [%] | Binder |
| --- | --- |
| 98.5 | B15 |
| 98.6 | B16 |
| 97.9 | B17 |
| 98.5 | B18 |
| 98.6 | B19 |
| 98.6 | B20 |
